Data from article PMC10205607, “MAP4K3 inhibits Sirtuin-1 to repress the LKB1–AMPK pathway to promote amino acid-dependent activation of the mTORC1 complex” (Life Science Alliance, 2023).

Target: T1, FLAG-LKB1 (UniProt Q15831 1-433)
T1 construct: Liver kinase B1 (LKB1); also called liver kinase B1; source: HEK293A (WT or MAP4K3 k.o.), transfected, in lysate
T1 sequence (looked up): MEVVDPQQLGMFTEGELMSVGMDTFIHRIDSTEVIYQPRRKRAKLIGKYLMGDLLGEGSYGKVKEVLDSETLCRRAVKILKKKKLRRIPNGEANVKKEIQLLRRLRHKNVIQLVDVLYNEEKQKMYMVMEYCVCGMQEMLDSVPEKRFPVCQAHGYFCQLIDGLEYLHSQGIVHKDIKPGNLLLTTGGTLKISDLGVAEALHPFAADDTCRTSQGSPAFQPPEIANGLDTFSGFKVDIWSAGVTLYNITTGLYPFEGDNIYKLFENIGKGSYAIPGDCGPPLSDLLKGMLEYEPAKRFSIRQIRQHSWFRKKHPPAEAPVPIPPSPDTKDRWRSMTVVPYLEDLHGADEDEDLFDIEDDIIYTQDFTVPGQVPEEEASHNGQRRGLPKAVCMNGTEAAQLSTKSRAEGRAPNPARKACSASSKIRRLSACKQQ
Test: co-IP; anti-FLAG IP from lysates of co-transfected HEK293A cells (WT or MAP4K3 k.o.), blot with anti-HA and anti-FLAG; lysis buffer 25 mM HEPES-KOH pH 7.4, 150 mM NaCl, 5 mM EDTA, 1% Triton X-100; 2 h at 4°C
Conditions: partners not purified

B1: SIRT1-HA-T344D (enzyme, UniProt Q96EB6 1-747, looked up)
chain: MADEAALALQPGGSPSAAGADREAASSPAGEPLRKRPRRDGPGLERSPGEPGGAAPEREVPAAARGCPGAAAAALWREAEAEAAAAGGEQEAQATAAAGEGDNGPGLQGPSREPPLADNLYDEDDDDEGEEEEEAAAAAIGYRDNLLFGDEIITNGFHSCESDEEDRASHASSSDWTPRPRIGPYTFVQQHLMIGTDPRTILKDLLPETIPPPELDDMTLWQIVINILSEPPKRKKRKDINTIEDAVKLLQECKKIIVLTGAGVSVSCGIPDFRSRDGIYARLAVDFPDLPDPQAMFDIEYFRKDPRPFFKFAKEIYPGQFQPSLCHKFIALSDKEGKLLRNYDQNIDTLEQVAGIQRIIQCHGSFATASCLICKYKVDCEAVRGDIFNQVVPRCPRCPADEPLAIMKPEIVFFGENLPEQFHRAMKYDKDEVDLLIVIGSSLKVRPVALIPSSIPHEVPQILINREPLPHLHFDVELLGDCDVIINELCHRLGGEYAKLCCNPVKLSEITEKPPRTQKELAYLSELPPTPLHVSEDSSSPERTSPPDSSVIVTLLDQAAKSNDDLDVSESKGCMEEKPQEVQTSRNVESIAEQMENPDLKNVGSSTGEKNERTSVAGTVRKCWPNRVAKEQISRRLDGNQYLFLPPNRYIFHGAEVYSDSEDDVLSSSSCGSNSDSGTCQSPSLEEPMEDESEIEEFYNGLEDEPDVPERAGGAGFGTDGDDQEAINEAISVKQEVTDMNYPSNKS
notes: Derived from the SIRT1-HA construct; also called SIRT1-T344D; SIRT1-T344D-HA; source: MAP4K3 k.o; HEK293A (M4 line), transfected, in lysate
B1 was tested, and the “fold change of the co-precipitate against WT SIRT1 with LKB1 (in MAP4K3 k.o. cells)” value was ~2 fold.
